Assays:
[1] = target: T1, IGF2BP3-001 A2 (alanine-substitution variant of IGF2BP3-001) peptide on HLA-A*02, assumed (human); test: cytokine release
T1 peptide: KAQEILTQV

[2] = target: T2, IGF2BP3-001 A8 (alanine-substitution variant of IGF2BP3-001) peptide on HLA-A*02, assumed (human); test: cytokine release
T2 peptide: KIQEILTAV

[3] = target: T3, IGF2BP3-001 A9 (alanine-substitution variant of IGF2BP3-001) peptide on HLA-A*02, assumed (human); test: cytokine release
T3 peptide: KIQEILTQA

[4] = target: T4, IGF2BP3 (IGF2BP3-001) peptide on HLA-A2 (human); test: Target peptide titration on loaded target cells, IFN-gamma release; RNA-electroporated primary CD8+ T cells; full-length, on cells
T4 peptide: KIQEILTQV

binding result [1]: recognises | binding result [2]: recognises | binding result [3]: recognises | EC50 of peptide [4]: ~1 nM
B1: TCR R10P1A7 (TCR, V domains shown)
Valpha: GEDVEQSLFLSVREGDSSVINCTYTDSSSTYLYWYKQEPGAGLQLLTYIFSNMDMKQDQRLTVLLNKKDKHLSLRIADTQTGDSAIYFCAESKETRLMFGDGTQLVVKP
Vbeta: GAVVSQHPSWVICKSGTSVKIECRSLDFQATTMFWYRQFPKQSLMLMATSNEGSKATYEQGVEKDKFLINHASLTLSTLTVTSAHPEDSSFYICSARAGGHEQFFGPGTRLTVL

Source: US20170312350A1 (published 2017)
